Reference: US20240124586A1 (WUXI BIOLOGICS IRELAND, published 2024)
Like-named read-outs stand apart in the source and are kept apart here.

What was measured:
[1] = molecular target: T1, human CD3 on CD3+ Jurkat cells (human, UniProt P07766 23-207; P09693 23-182; P04234 22-171); experiment: FACS on CD3+ Jurkat cells, Expi293 supernatant
T1 construct: whole, on cells; also called CD3 positive Jurkat cells

[2] = molecular target: T2, cynomolgus PD-1 on engineered 293F cells (W305-293F.cynoPro1.FL.pool) (cynomolgus); experiment: FACS binding to cynomolgus PD-1 engineered cells
T2 construct: whole, on cells; also called cynomolgus PD-1 engineered cells
Protocol: (§1) 4.0-fold titrated Abs with 1% BSA DPBS from 40 μg/ml to 0.0001526 μg/ml were added to the cells. Plates were incubated at 4° C. for 1 hour. After wash, […] 1:150 diluted PE-labeled goat anti-human antibody (Jackson 109-115-098) was added to each well and the plates were incubated at 4° C. for 1 hour. The binding of the antibodies onto the cells was tested by flow cytometry and the mean fluorescence intensity (MFI) was analyzed by FlowJo.

[3] = molecular target: T3, human PD-1 on engineered CHO-S cells (W305-CHO-S.hPro1.C6) (human, UniProt Q15116 25-288); experiment: FACS competition: blocks human PD-L1 protein (W315-hPro1.ECD.mFc) binding to human PD-1 engineered cells
T3 construct: whole, on cells; also called human PD-1 engineered cells; PD-1+ cells
Protocol: In order to test whether the bispecific antibodies could block hPD-L1 binding to hPD-1 protein, a competitive FACS was conducted. […] Plates were incubated at 4° C. for 1 hour. After wash, the binding of W315-hPro1.ECD.mFc to cell expressive human PD-1 was detected by FITC-labeled goat anti-mouse antibody (abcam 98716 1:125). The competition binding of antibodies to the cells was tested by flow cytometry and the mean fluorescence intensity (MFI) was analyzed by FlowJo.

[4] = molecular target: T3, human PD-1 on engineered CHO-S cells …; experiment: FACS on human PD-1 engineered cells
Protocol: as §1, with “Engineered human PD-1 expressing cells W305-CHO-S.hPro1.C6 were seeded at 1×10⁵ cells/well in U-bottom 96-well plates (COSTAR 3799). Antibodies” for “4.0-fold titrated Abs”, “with 3.16-fold titration in” for “with”, “200 nM” for “40 μg/ml”, “0.002 nM” for “0.0001526 μg/ml”, “The plates” for “Plates”, “1:125” for “1:150”

[5] = molecular target: T4, human CTLA-4 on engineered 293F cells (W316-293F.hPro1.FL) (human, UniProt P16410 36-223); experiment: FACS on human CTLA-4 engineered cells
T4 construct: whole, on cells; also called human CTLA-4 engineered cells; CTLA-4+ cells
Protocol: as §1, with “3.16-fold” for “4.0-fold”, “200 nM” for “40 μg/ml”, “0.002 nM” for “0.0001526 μg/ml”

[6] = molecular target: T3, human PD-1 on engineered CHO-S cells …; experiment: FACS on human PD-1 engineered cells; remark: listed apart in the source
Protocol: as §1, with “Engineered human PD-1 expressing cells W305-CHO-S.hPro1.C6 were seeded at 1×10⁵ cells/well in U-bottom 96-well plates (COSTAR 3799). Antibodies” for “4.0-fold titrated Abs”, “with 3.16-fold titration in” for “with”, “200 nM” for “40 μg/ml”, “0.002 nM” for “0.0001526 μg/ml”, “The plates” for “Plates”, “1:125” for “1:150”

T3 sequence (Q15116 25-288, change not shown): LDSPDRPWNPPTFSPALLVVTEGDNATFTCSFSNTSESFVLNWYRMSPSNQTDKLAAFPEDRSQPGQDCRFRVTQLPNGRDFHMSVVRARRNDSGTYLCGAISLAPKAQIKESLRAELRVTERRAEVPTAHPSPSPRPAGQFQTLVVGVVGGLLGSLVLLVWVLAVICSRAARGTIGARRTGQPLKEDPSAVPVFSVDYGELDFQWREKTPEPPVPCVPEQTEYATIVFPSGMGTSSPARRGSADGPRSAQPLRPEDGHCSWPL
T4 sequence (P16410 36-223, change not shown): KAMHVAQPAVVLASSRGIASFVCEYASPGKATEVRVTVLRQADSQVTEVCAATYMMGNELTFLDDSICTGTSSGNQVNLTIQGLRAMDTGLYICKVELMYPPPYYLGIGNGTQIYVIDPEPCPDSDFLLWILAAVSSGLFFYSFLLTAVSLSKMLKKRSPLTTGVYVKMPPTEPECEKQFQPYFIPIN
T1 sequence (P07766 23-207, chain 1 of 3): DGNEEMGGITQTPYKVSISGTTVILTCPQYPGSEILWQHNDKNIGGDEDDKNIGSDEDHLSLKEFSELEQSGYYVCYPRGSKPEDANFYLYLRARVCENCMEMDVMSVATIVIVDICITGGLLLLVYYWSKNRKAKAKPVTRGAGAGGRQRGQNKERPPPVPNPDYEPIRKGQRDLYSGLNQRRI
T1 sequence (P09693 23-182, chain 2 of 3): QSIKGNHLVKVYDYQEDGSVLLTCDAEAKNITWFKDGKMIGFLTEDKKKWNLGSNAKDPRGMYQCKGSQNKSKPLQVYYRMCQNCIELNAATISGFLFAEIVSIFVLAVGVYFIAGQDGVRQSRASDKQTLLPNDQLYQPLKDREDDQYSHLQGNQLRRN
T1 sequence (P04234 22-171, chain 3 of 3): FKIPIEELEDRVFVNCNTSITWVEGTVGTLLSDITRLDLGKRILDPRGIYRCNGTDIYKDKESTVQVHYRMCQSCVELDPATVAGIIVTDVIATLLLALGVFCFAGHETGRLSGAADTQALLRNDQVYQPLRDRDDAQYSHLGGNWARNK

B1: T3-Design_2-QSKE (IgG1) (antibody)
heavy: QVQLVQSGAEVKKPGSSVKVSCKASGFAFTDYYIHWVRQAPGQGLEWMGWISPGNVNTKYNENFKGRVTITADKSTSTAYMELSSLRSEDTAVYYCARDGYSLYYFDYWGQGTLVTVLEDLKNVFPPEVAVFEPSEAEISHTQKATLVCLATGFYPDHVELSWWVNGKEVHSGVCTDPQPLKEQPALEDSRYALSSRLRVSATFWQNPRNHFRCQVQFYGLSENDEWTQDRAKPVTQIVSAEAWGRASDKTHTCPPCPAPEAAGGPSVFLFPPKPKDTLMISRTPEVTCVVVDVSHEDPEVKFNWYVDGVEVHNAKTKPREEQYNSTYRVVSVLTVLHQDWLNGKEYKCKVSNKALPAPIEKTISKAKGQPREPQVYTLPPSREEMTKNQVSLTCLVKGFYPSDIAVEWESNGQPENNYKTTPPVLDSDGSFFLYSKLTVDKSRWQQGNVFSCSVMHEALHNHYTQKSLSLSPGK
light: DIVMTQSPDSLAVSLGERATINCKSSQSLLNSRTRKNYLAWYQQKPGQPPKLLIYWASTRQSGVPDRFSGSGSGTDFTLTISSLQAEDVAVYYCTQSHTLRTFGGGTKVEIKPDIQNPDPAVYQLRDSKSSDKSVCLFTDFDSQTQVSQSKDSDVYITDKCVLDMRSMDFKSNSAVAWSSKSDFACANAFKNSIIPEDTFFPSPESS
notes: De-glycosylation mutant of Design_2; tested as supernatant
- EC50 (read off the curve) [1]: ~0.5 nM

B2: WBP3055_1.153.7.hAb (antibody, V domains shown)
VH: EVQLLESGGGLVQPGGSLRLSCAASGFTFSSHAMSWVRQAPGKGLEWVSTITGGGGSIYYADSVKGRFTISRDNSKNTLYLQMNSLRAEDTAVYYCAKNRAGEGYFDYWGQGTLVTVSS
VL: SYELTQPLSVSVALGQTARITCGGDNIGNKDVHWYQQKPGQAPVLVIYRDSNRPSGIPEGFSGSNSGNTATLTISRAQAGDEADYYCQVWDSIWVFGGGTKLTVL
notes: anti-PD-1 antibody, parent of the U6 arm; also called W3055_1.153.7 (named U6); WBP3055-1.153.7.uIgG4k
- EC50 [2]: 3.48 nM
- Top(MFI) [2]: 56700 MFI
- IC50 [3]: 0.888 nM
- Inhibition % [3]: 98.6%

B3: T1U6.G19.IgG4, bispecific anti-CTLA-4 x PD-1 (bispecific antibody)
heavy: not shown
light 1: not shown
light 2: SYELTQPLSVSVALGQTARITCGGDNIGNKDVHWYQQKPGQAPVLVIYRDSNRPSGIPEGFSGSNSGNTATLTISRAQAGDEADYYCQVWDSIWVFGGGTKLTVLPDIQNPDPAVYQLRDSKSSDKSVCLFTDFDSQTQVSQSKDSDVYITDKCVLDMRSMDFKSNSAVAWSQKSDFACANAFQNSIIPEDTFFPSPESS
notes: Symmetric tetravalent format G19; T1 (ipilimumab) on top, U6 (W3055_1.153.7) as TCR-chimeric Fab at the C-terminus
- EC50 [4]: 7.93 nM

B4: U6T1.G19.IgG4, bispecific anti-PD-1 x CTLA-4 (bispecific antibody)
heavy: not shown
light 1: SYELTQPLSVSVALGQTARITCGGDNIGNKDVHWYQQKPGQAPVLVIYRDSNRPSGIPEGFSGSNSGNTATLTISRAQAGDEADYYCQVWDSIWVFGGGTKLTVLGQPKAAPSVTLFPPSSEELQANKATLVCLISDFYPGAVTVAWKADSSPVKAGVETTTPSKQSNNKYAASSYLSLTPEQWKSHKSYSCQVTHEGSTVEKTVAPTECS
light 2: not shown
notes: Symmetric tetravalent format G19; also called U6T1 in G19 format
- EC50 [4]: 2.19 nM

B5: U6T5.G19.IgG4, bispecific anti-PD-1 x CTLA-4 (bispecific antibody)
heavy: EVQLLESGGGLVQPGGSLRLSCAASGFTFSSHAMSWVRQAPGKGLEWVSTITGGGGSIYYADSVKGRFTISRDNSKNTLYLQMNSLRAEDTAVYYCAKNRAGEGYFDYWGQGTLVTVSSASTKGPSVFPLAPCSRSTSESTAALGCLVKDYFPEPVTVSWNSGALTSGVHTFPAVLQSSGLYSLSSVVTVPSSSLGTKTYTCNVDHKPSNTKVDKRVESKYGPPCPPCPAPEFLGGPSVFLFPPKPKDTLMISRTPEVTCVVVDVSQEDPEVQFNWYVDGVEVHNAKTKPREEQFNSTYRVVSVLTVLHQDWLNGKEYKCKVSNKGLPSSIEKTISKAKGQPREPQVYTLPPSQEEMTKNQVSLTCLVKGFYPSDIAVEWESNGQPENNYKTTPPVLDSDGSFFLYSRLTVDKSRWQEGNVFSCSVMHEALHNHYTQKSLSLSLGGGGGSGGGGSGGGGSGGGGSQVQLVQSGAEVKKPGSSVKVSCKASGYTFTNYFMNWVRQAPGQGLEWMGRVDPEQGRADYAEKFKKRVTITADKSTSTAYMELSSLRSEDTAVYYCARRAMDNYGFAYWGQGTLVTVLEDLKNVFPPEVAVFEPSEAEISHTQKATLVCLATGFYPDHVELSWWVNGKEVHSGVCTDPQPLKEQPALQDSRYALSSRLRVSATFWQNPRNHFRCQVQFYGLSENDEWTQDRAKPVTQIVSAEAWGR
light 1: B4 light 1
light 2: EIVLTQSPDFQSVTPKEKVTITCSANSALSYMYWYQQKPDQSPKLWVHGTSNLASGVPSRFSGSGSGTDFTLTINSLEAEDAATYYCHHWSNTQWTFGGGTKVEIKPDIQNPDPAVYQLRDSKSSDKSVCLFTDFDSQTQVSQSKDSDVYITDKCVLDMRSMDFKSNSAVAWSQKSDFACANAFQNSIIPEDTFFPSPESS
notes: T5 = anti-CTLA-4 antibody W3162_1.154.8-z35; also called U6T5 in G19 format
- EC50 [5]: 8.93 nM
- EC50 [6]: 0.97 nM

B6: U6T5.G19R.IgG4, bispecific anti-PD-1 x CTLA-4 (bispecific antibody)
heavy: EVQLLESGGGLVQPGGSLRLSCAASGFTFSSHAMSWVRQAPGKGLEWVSTITGGGGSIYYADSVKGRFTISRDNSKNTLYLQMNSLRAEDTAVYYCAKNRAGEGYFDYWGQGTLVTVLEDLKNVFPPEVAVFEPSEAEISHTQKATLVCLATGFYPDHVELSWWVNGKEVHSGVCTDPQPLKEQPALQDSRYALSSRLRVSATFWQNPRNHFRCQVQFYGLSENDEWTQDRAKPVTQIVSAEAWGRYGPPCPPCPAPEFLGGPSVFLFPPKPKDTLMISRTPEVTCVVVDVSQEDPEVQFNWYVDGVEVHNAKTKPREEQFNSTYRVVSVLTVLHQDWLNGKEYKCKVSNKGLPSSIEKTISKAKGQPREPQVYTLPPSQEEMTKNQVSLTCLVKGFYPSDIAVEWESNGQPENNYKTTPPVLDSDGSFFLYSRLTVDKSRWQEGNVFSCSVMHEALHNHYTQKSLSLSLGGGGGSGGGGSGGGGSGGGGSQVQLVQSGAEVKKPGSSVKVSCKASGYTFTNYFMNWVRQAPGQGLEWMGRVDPEQGRADYAEKFKKRVTITADKSTSTAYMELSSLRSEDTAVYYCARRAMDNYGFAYWGQGTLVTVSSASTKGPSVFPLAPCSRSTSESTAALGCLVKDYFPEPVTVSWNSGALTSGVHTFPAVLQSSGLYSLSSVVTVPSSSLGTKTYTCNVDHKPSNTKVDKRV
light 1: B3 light 2
light 2: EIVLTQSPDFQSVTPKEKVTITCSANSALSYMYWYQQKPDQSPKLWVHGTSNLASGVPSRFSGSGSGTDFTLTINSLEAEDAATYYCHHWSNTQWTFGGGTKVEIKRTVAAPSVFIFPPSDEQLKSGTASVVCLLNNFYPREAKVQWKVDNALQSGNSQESVTEQDSKDSTYSLSSTLTLSKADYEKHKVYACEVTHQGLSSPVTKSFNRGEC
notes: also called U6T5 in G19R format
- EC50 [5]: 8.23 nM
- EC50 [6]: 1.26 nM

B7: U6T5.G25R.IgG4, bispecific anti-PD-1 x CTLA-4 (bispecific antibody)
heavy: EVQLLESGGGLVQPGGSLRLSCAASGFTFSSHAMSWVRQAPGKGLEWVSTITGGGGSIYYADSVKGRFTISRDNSKNTLYLQMNSLRAEDTAVYYCAKNRAGEGYFDYWGQGTLVTVSSASTKGPSVFPLAPCSRSTSESTAALGCLVKDYFPEPVTVSWNSGALTSGVHTFPAVLQSSGLYSLSSVVTVPSSSLGTKTYTCNVDHKPSNTKVDKRVGGGGSGGGGSQVQLVQSGAEVKKPGSSVKVSCKASGYTFTNYFMNWVRQAPGQGLEWMGRVDPEQGRADYAEKFKKRVTITADKSTSTAYMELSSLRSEDTAVYYCARRAMDNYGFAYWGQGTLVTVLEDLKNVFPPEVAVFEPSEAEISHTQKATLVCLATGFYPDHVELSWWVNGKEVHSGVCTDPQPLKEQPALQDSRYALSSRLRVSATFWQNPRNHFRCQVQFYGLSENDEWTQDRAKPVTQIVSAEAWGRYGPPCPPCPAPEFLGGPSVFLFPPKPKDTLMISRTPEVTCVVVDVSQEDPEVQFNWYVDGVEVHNAKTKPREEQFNSTYRVVSVLTVLHQDWLNGKEYKCKVSNKGLPSSIEKTISKAKGQPREPQVYTLPPSQEEMTKNQVSLTCLVKGFYPSDIAVEWESNGQPENNYKTTPPVLDSDGSFFLYSRLTVDKSRWQEGNVFSCSVMHEALHNHYTQKSLSLSLGK
light 1: B4 light 1
light 2: B5 light 2
notes: also called U6T5.G25R.uIgG4; U6T5 in G25R format
- EC50 [5]: 8.36 nM
- EC50 [6]: 1.56 nM
